Results published in the nanobody polyreactivity screen of Harvey et al. (2022).

Assay: yeast display, Sf9 membrane polyspecificity reagent, FACS + sequencing; frameworks hold sequencing errors
In short: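 After 36–48 hours of galactose induction, yeast (Saccharomyces cerevisiae BJ5465) displaying a synthetic nanobody library were stained at 4 °C for 1 hour with 10% biotinylated, detergent-solubilized Sf9 membrane reagent. Streptavidin microbeads enriched the stained cells before FACS sorting into low and high (top ~1%) gates on anti-HA and streptavidin fluorescence. Each clone's polyreactivity label reflects its gate of origin.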

| Sequence | polyreactivity (PSR sort gate) |
| --- | --- |
| QVQLVESGGGLVQAVGTLRLSCAASGSIFGYNAMGWYRHAPAKEREFVAAIRWSSGSTYYADSVKGRFTISRDNAMNTVFLQMNSLKPEDTAVNYCATRQTYLYWGQGTQVTVSS | high polyreactivity |
| QVQLVESGGGLVQAGGSLRLSCAASGFTFYNYAMGWYRQAPGKERELVAAITSSGGRTYYADSVKGRFTISRDNAKNTVYLQMNSLKPEDTAVYYCAATGFYLRGEYYYCGQGTQVTVSS | low polyreactivity |
| QVQLVESGGGLVQAGGSLRLSCAASGSIFTTYAMGWYRQAPGKERELVAGITGGDSSTYADSVKGRFTISRDNAKNTVYLQMNSLKPEDTAVYYCAVDSPYQHDDYWGQGTQVTVSS | low polyreactivity |
| QVQLVESGGGLVQAGGSLRLICAASGRIFSYYAMGWYRQAPGKERELVARITSRGASTYYADSVKGRFTISRDNAKNTVYLQMNSLKPEDTAVYYCAARYIPIQYPSYRTWGGYSWGQGTQVTVSS | high polyreactivity |
| QVQLVESGGGLVQAGGSLRLSCAASGRTFKYYTMGWYRQAPGKEREFVAAITSSGGRTYYADSVKGRFTISRDNAKNTVYLQMNSLKPEDTAVYYCAASTYRVWLAPATLSRYDYWGQGTQVTVSS | high polyreactivity |
| QVQLVESGGGLVQAGGSLRLSCAASGSIFPYAMGWYRQSPGKERELVAAITRSGASTYYADSVKGRFTISRDNAKNTVYLQMNSLKPEDTAVYYCAAYALRGVRYPYRVDFYYWGQGTQVTVSS | high polyreactivity |
| QVQLVESGGGLVQAGGSIRLSCAASGSIFEVNAMGWYRQAPGKERELVAGISNADSTNYADSVKGRFTISRDNAKNTVYLQMNSLKPEDTAVYYCATDLYRDPPKDLLGPEYDYWGQGTQVTVSS | low polyreactivity |
| QVQLVESGGGLVQAGGSLRLTCAASGSIFSTNAMGWYRQAPGKERELVATITSGGRTYYADSVKGRFTISRDNAKNTVYLQMNSLKPEDTAVYYCARVPPKYRWGRRLVYVHVDYWGQGTQVTVSS | low polyreactivity |
| QVQLVESGGGLVQAGGSLRLSCAASGFIFGDNAMGWYRQAPGKERELVAAINSGSRTSYADSVKGRFTISRDNAKNTVYLQMNSLKPEDTAVYYCAAESVSSGDNASRYDYWGQGTQVTVSS | low polyreactivity |
| QFQLVESGGGLVQAGGSLRLSCAASGIFVGYTMGWYRQAPGKEREFVAAIRWTDGSTYYADSVKGRFTISRDNAKNTVYLQMNSLKPEDTAVYYCAADSHDPARYYYGDEVEDEYWGQGTQVTVSS | low polyreactivity |
| QVQLVESGGGLVQAGGSLRLSCAASGIIFARYAMGWYRQAPGKERELVAAINWSGGDTYYADSVKGRFTISRDNAKNTVYLEMNSLIPEDTAVYYCSKVISYLVVLPRTERYEGDYWGQGTQVSVSS | low polyreactivity |
| QVQLVESGGGLVQAGGSLRLICAASGSFFSKYAMGWYRQAPGTEREWVAAISWSGTSTYYADSVKGRFTISRDNAKITVYLQLNSLKTEDNAVSYCAASSPRSLSLLGYWGQGTQVTESS | low polyreactivity |
| QVQLVESGGGLVQAGGSLRLSCAASGRTLELYVMGWYRQAPGKERELVAAIRWGTGSTYYADSVKGRFTISRDNAKNTVYLQMNSLKPEDTAVYYCAAVLRQYYRAYDYWGQGTQVTVSS | high polyreactivity |
| QVQLVESGGGLVQAGGILRLSCASSGRIFTFYAMGWYRQAPGKERELVAAISSGGSTYYADSVKGLFTISRDNAKNTVYLQMNSLKPEDTAVYYCAAEPVWYADYDYWGQGTQVTVSS | low polyreactivity |
| QVQLVESGGGLVQAGGSLRLSCAASGFTFRYYAMGWYRQAPGKEREFVAAISRGGGTTYYADSVKGRFTISRDNAKNTVYLQMNSLKPEDTAVYYCATRALYWRYGYDYWGQGTQVTVSS | high polyreactivity |
| QVQLVESWGGLVQAGGSLRLSCAASGSTISANALGWDRQAPGTEREWVASISRRGGSPYYADSVKGRFTISRDKATNTVYLQMNSLKPEDTAVYYSGAVFRYYARTFDYWGQGTQVSVSS | high polyreactivity |

| Sequence | polyreactivity (PSR sort gate) |
| --- | --- |
| QVQLVESVGGLVQAGGSLRLSCAASGYTFFYAMGWYRQAPGKERELVASITSAASTTYADSVKGRFTISRDNAKNTVYLQMNSLKPEDTAVYYCAASHSWWFYPGYYYWGQGTQVTVSS | high polyreactivity |
| QVQLVESGGGLVQAGGSLRLSCAASGIIFRWYTMGWYRQAPGKEREVVAAITGRGGSTYYADSVKGRFTISRDNAKNTVYLQMNSLKPEDSAVYYCAAQYSYPTPYRTYEYDYWGQGTQVTVSS | high polyreactivity |
| QVQLVESGGGLVQAGGSLRLSCAACGIIFEYNAMGWYRQAPGKVRELVASIDSGGSTNYADSVKGRFTISRDNAKNTVYLQKNSLKPEDTAVYYCNADDTTVSPWYYYYQSYYWGQGTQVTVSS | low polyreactivity |
| QVQLVESGGGLVQAGGSLRLSCAASGSTFGYYAMGWYRQAPGKERELVASINWRGDSTYYADSVKGRFTISRDNAKNTVYLQMNSLKPEDTAVYYCNKAYRRRYVQGEYWGQGTQVSVSS | high polyreactivity |
| QVQLVESGGGLVQAGGSLRLRCAASGSTFTSYTMGWYRQAPGKERELVARITRGGGSTYYADSVKGRFTISRDNAKNTVYLQMNSLKPEDTAVYYCAKQVVGRAYYSWGQGTQVTVSS | low polyreactivity |
| QVQLVESGGGLVQAGGSLRLSCAASGIIFDTNAIGWYSQAPGKERELVATITQRGGTTYYADSVKGRFTISRDNAKNTVYLQMNSLKPEDTAVYYCNAGPVRLPYDSWGQGSQVTVSS | low polyreactivity |
| QVQLQESGGGLAQAVGSLRLSCAASGNIFDPDIMGSYRQAPAKERELVGSITHGGSTNYVDSVKGRFTISRDNATNTVHLQMNRLKPVDTGVYYCAAIGYPDIPSYFDYDSDFFNWGHGTQVTVSS | high polyreactivity |
| QDQLVESGGGLVQAGGSLRLSCAASGSTFYRYAMGRSRQAPGTERELVAAISWRGGSTYYADSVKGRFTISRDNAKNSVYLQMNSLKPEDTAVYYCNADWYPYDQMYYWGQGTQVTVSS | low polyreactivity |
| QVQLVESGGGLVQAGGSLPLSCAASGRTFWDNAMGWYRQAPGKERELVATITSGDSTNYADSVKWRFTISRDNAKNTVYLQMNSLKPEDTAVYDCARVIVFDAYEFDYWGQGTQVTVSS | low polyreactivity |
| QVQLVESGGGLVQAGGSLRLSCAASGDTFPKYAMGWYRQAPGKERELVAAITKRGGRTYYADSVKGRFTISRDNAKNTVYLQMNRVKPEDTAVYYCAVDLDGPEYSQVHYDYWGQGTQVTVSS | high polyreactivity |
| QVQLVESGGGLVQAGGSLRLSCAASGSTFKYYTMGWYIQAPGKERELVAAITWRGGSTYYADSVKGRFTISRDNAKNTVYLQMNSLKPEDTAVYYCNVLQRYGASRYDYWGQGTQVTVSS | high polyreactivity |
| QVQLVESGGGLVQAGGSLRLSCAASGRTLGQNAMGWYRQAPGKERELVASIRSGGITDYADSVKGRFTISRDNAKNTVYLQMNCLKPEDTAVYYCAADTYGYQGSAGGHWGQGTQVTVSS | low polyreactivity |
| QVQLVESGGGLVQAGGSLRLSCAASGIIFSYNVMGWYRQAPGTERELVAGISRSGGSTYYADSVKGRFTISRDNAKNTVYLQMNSLKPEDTAVYYCNRVSYGPYYSYWSDFGYWGQGTQVTVSS | high polyreactivity |
| QVQLVESGGGLVQAGGSLRLSCAASGSIFRGYAMGWYRQAPGKERELVAAITSSGGSTNYADSVKGRFTISRDNAKNTVYLQMNSLKPEDTAVYYCAKAPGLWHLIQRMDYWGQVTQVTVSS | low polyreactivity |
| QVQLVESGGGLVQAGGSLRLSCAASGRIYRSYAMGWYRQAPGKERDLVAAITKSGGGTYYADTVKGRYTISRVNAKNTVYLQMNSLNPEDTAVYYCGARGHGGYYYWGQGTQVTVSS | high polyreactivity |
